Results taken from patent US20170247440A1 (Hoffmann-La Roche, published 2017).
Where two headings read alike, the source gives them in different places.

B1: antibody 0117 (bispecific anti-VEGF/PDGF-B CrossMab antibody) (bispecific antibody, human IgG1, kappa, L234A L235A)
chain 1: DIQLTQSPSSLSASVGDRVTITCSASQDISNYLNWYQQKPGKAPKVLIYFTSSLHSGVPSRFSGSGSGTDFTLTISSLQPEDFATYYCQQYSTVPWTFGQGTKVEIKSSASTKGPSVFPLAPSSKSTSGGTAALGCLVKDYFPEPVTVSWNSGALTSGVHTFPAVLQSSGLYSLSSVVTVPSSSLGTQTYICNVNHKPSNTKVDKKVEPKSCDKTHTCPPCPAPEAAGGPSVFLFPPKPKDTLMASRTPEVTCVVVDVSHEDPEVKFNWYVDGVEVHNAKTKPREEQYNSTYRVVSVLTVLAQDWLNGKEYKCKVSNKALGAPIEKTISKAKGQPREPQVYTLPPCRDELTKNQVSLWCLVKGFYPSDIAVEWESNGQPENNYKTTPPVLDSDGSFFLYSKLTVDKSRWQQGNVFSCSVMHEALHNAYTQKSLSLSPGK
chain 2: not shown
chain 3: EVQLVESGGGLVQPGGSLRLSCAASGYDFTHYGMNWVRQAPGKGLEWVGWINTYTGEPTYAADFKRRFTFSLDTSKSTAYLQMNSLRAEDTAVYYCAKYPYYYGTSHWYFDVWGQGTLVTVSSASVAAPSVFIFPPSDEQLKSGTASVVCLLNNFYPREAKVQWKVDNALQSGNSQESVTEQDSKDSTYSLSSTLTLSKADYEKHKVYACEVTHQGLSSPVTKSFNRGEC
chain 4: not shown
notes: also called anti-PDGFB/VEGF antibody
B2: antibody 0144 (bispecific anti-ANG2/PDGF-B CrossMab antibody) (bispecific antibody, human IgG1, kappa, L234A L235A)
heavy 1: SYVLTQPPSVSVAPGQTARITCGGNNIGSKSVHWYQQKPGQAPVLVVYDTSDRPSGIPERFSGSNSGNTATLTISRVEAGDEADYYCQVWDSSSDHWVFGGGTKLTVLSSASTKGPSVFPLAPSSKSTSGGTAALGCLVKDYFPEPVTVSWNSGALTSGVHTFPAVLQSSGLYSLSSVVTVPSSSLGTQTYICNVNHKPSNTKVDKKVEPKSCDKTHTCPPCPAPEAAGGPSVFLFPPKPKDTLMASRTPEVTCVVVDVSHEDPEVKFNWYVDGVEVHNAKTKPREEQYNSTYRVVSVLTVLAQDWLNGKEYKCKVSNKALGAPIEKTISKAKGQPREPQVYTLPPCRDELTKNQVSLWCLVKGFYPSDIAVEWESNGQPENNYKTTPPVLDSDGSFFLYSKLTVDKSRWQQGNVFSCSVMHEALHNAYTQKSLSLSPGK
heavy 2: not shown
light 1: not shown
light 2: not shown
B3: antibody 0086 (antibody, V domains shown)
VH: EVQLVESGGGLVQPGGSLRLSCAASGFTFSSYWMSWVRQAPEKGLEWVSTISDGGGLTYYADSVKGRFTISRDNAKNSLYLQMNSLRAEDTAVYYCAESGGYTDWLFGYWGQGTLVTVSS
VL: not shown
B4: antibody 0085 (antibody, V domains shown)
VH: B3 VH
VL: not shown
B5: mumAb (murine anti-human PDGF-B antibody) (antibody, V domains shown)
VH: QVQLQQSGAELMKPGASVKISCKATGYTFSSYWIEWVKQRPGHGLEWIGEILPGSGSTNYNEKFKVKATFTADTSSNTAYMQLSSLTSEDSAVYYCAQTTQDFDSWGQGTTLTVSS
VL: DIVLTQSPGSLAVSLGQRATISCRASESVDIYGYSFMHWYQQKPGQPPKLLIYRASNLESGIPARFSGSGSRTDFTLTINPVEADDVATYYCQQSNEDPRTFGGGTKLEIK

Assays:
human PDGF-BB [1] = molecular target: T1, human PDGF-BB (human, UniProt P01127 82-190); test: cell-based or functional assay
T1 sequence (P01127 82-190 limits assumed): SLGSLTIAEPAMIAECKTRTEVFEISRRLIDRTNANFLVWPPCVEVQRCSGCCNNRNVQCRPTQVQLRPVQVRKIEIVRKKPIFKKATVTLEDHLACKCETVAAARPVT

human PDGF-BB [2] = molecular target: T1, human PDGF-BB; test: SPR, on immobilized human PDGF-BB (Example 32); design: t½: unit not given here
human PDGF-BB [3] = molecular target: T1, human PDGF-BB; test: cell-based or functional assay; remark: listed apart in the source
[4] = molecular target: T2, human ANG2-RBD-mouse Fc-region fusion (human, UniProt O15123 275-496, limits assumed); test: cell-based or functional assay
T2 sequence (looked up): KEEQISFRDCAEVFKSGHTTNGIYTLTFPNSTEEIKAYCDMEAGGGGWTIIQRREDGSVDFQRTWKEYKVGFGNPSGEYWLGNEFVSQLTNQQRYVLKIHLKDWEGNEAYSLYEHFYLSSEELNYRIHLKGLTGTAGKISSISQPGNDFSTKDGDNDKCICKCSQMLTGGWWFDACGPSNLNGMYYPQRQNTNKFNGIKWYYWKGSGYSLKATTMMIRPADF

human PDGF-BB [5] = molecular target: T1, human PDGF-BB; test: cell-based or functional assay; remark: listed apart in the source
human PDGF-BB [6] = molecular target: T1, human PDGF-BB; test: cell-based or functional assay; remark: listed apart in the source

| Binder | Balb-C3T3 Proliferation % neutralization (human PDGF-BB [5]) [%] | Balb-C3T3 Proliferation IC50 (human PDGF-BB [5]) [pM] | Pericytes Migration % neutralization (human PDGF-BB [5]) [%] | Pericytes Migration IC50 (human PDGF-BB [5]) [pM] | Pericytes Proliferation % neutralization (human PDGF-BB [5]) [%] | Pericytes Proliferation IC50 (human PDGF-BB [5]) [pM] | also measured |
| --- | --- | --- | --- | --- | --- | --- | --- |
| B1 | – | – | – | – | – | – | IC50 Proliferation 3T3 (human PDGF-BB [1]): 19 pM; IC50 Proliferation human pericytes (human PDGF-BB [1]): 16 pM; Kd (human PDGF-BB [2]): 3000 pM; koff (human PDGF-BB [2]): 0.000245 s⁻¹; kon (human PDGF-BB [2]): 76700 M⁻¹ s⁻¹; t½ (human PDGF-BB [2]): 47; IC50 Migration-Inhibition human pericytes (human PDGF-BB [3]): 60 pM; IC50 Phospho-Inhibition human pericytes (human PDGF-BB [3]): 55 pM |
| B2 | – | – | – | – | – | – | ANG2 specific pTie2-ELISA [4]: 6 fold |
| B3 | 100 | 110 | 100 | 90 | 100 | 90 | – |
| B4 | 100 | 60 | 90 | 150 | 100 | 110 | – |
| B5 | – | – | – | – | – | – | Balb-C3T3 Proliferation IC50 (human PDGF-BB [6]): 179 pM; Pericytes Migration IC50 (human PDGF-BB [6]): 80 pM; Pericytes Proliferation IC50 (human PDGF-BB [6]): 210 pM |
